In publication PMC10172140:
Blank lines part the entries; values can stand above or below the substance they belong to.

Columns and labels:
KOR N336^8.49A (human) = KOR N336^8.49A (human) (UniProt P41145)
[1] = molecular target: BRIL-wt-KOR(54–368) reconstituted into nanodiscs (human) (UniProt P41145)
KOR R156^3.50A (human) = KOR R156^3.50A (human) (UniProt P41145)
[2] = molecular target: κ-opioid receptor in homogenous membrane fractions expressing KOR (human) (UniProt P41145)

loss in potency of agonist-mediated GoA coupling against wild-type KOR, BRET2 (KOR N336^8.49A (human)): 14 fold
fold increase of the high-affinity binding sites (Bmax) for the agonist radioligand ^3H-U69,593 in saturation binding, with 1 μM G protein against KOR alone [1]: 38 fold
Substance: wild-type GoA heterotrimeric G protein (from UniProt P09471 1-354; P62873 1-340; P59768 1-71) (complex)

loss in potency of agonist-mediated Gz coupling against wild-type KOR, BRET2 (KOR N336^8.49A (human)): 9 fold
fold increase of the high-affinity binding sites (Bmax) for the agonist radioligand ^3H-U69,593 in saturation binding, with 1 μM G protein against KOR alone [1]: 14 fold
Substance: wild-type Gz heterotrimeric G protein (from UniProt P19086 1-355; P62873 1-340; P59768 1-71) (complex)

loss in potency of agonist-mediated Gi1 coupling against wild-type KOR, BRET2 (KOR N336^8.49A (human)): 2 fold
fold increase of the high-affinity binding sites (Bmax) for the agonist radioligand ^3H-U69,593 in saturation binding, with 1 μM G protein against KOR alone [1]: 62 fold
Substance: wild-type Gi1 heterotrimeric G protein (from UniProt P63096 1-354; P62873 1-340; P59768 1-71) (complex)

efficacy of GR89,696-mediated Gg activation, BRET2, normalized to U50,488 (KOR R156^3.50A (human)): 46%
efficacy of momSalB-mediated Gg activation, BRET2, normalized to U50,488 (KOR R156^3.50A (human)): 38%
efficacy of GR89,696-mediated Gg activation, BRET2, normalized to U50,488 [2]: 103%
efficacy of momSalB-mediated Gg activation, BRET2, normalized to U50,488 [2]: 106%
fold increase of the high-affinity binding sites (Bmax) for the agonist radioligand ^3H-U69,593 in saturation binding, with 1 μM G protein against KOR alone [1]: 7 fold
Substance: wild-type Gg (gustducin) heterotrimeric G protein (from UniProt A8MTJ3 1-354; P62873 1-340; P59768 1-71) (complex)
